In the supplement of paper PMC10567573:
± gives the standard deviation.

Test: protein stability index of a GFP-peptide fusion (GPS, HEK-293T) (PSI 1-6); higher = more stable
[1] = treatment: DMSO, c terminus: a fixed tail appended
[2] = treatment: MLN4924 1 uM, 8 h, c terminus: a fixed tail appended
[3] = treatment: DMSO, c terminus: native
[4] = treatment: MLN4924 1 uM, 8 h, c terminus: native
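Further: 24-mer peptide tiles fused after GFP, lentivirally expressed, FACS-sorted into six equal bins by GFP/DsRed ratio, decoded by Illumina sequencing, PSI is the read-weighted mean bin number.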

Sequence | protein stability index [1] | protein stability index [2] | protein stability index [3] | protein stability index [4]
RKFYVHIKPAPARAPACSPEAAAA [FCHO1] | 2.66 ± 0.3 | 2.82 ± 0.35 |  | 
SPDLEWHAACLKCAECSQYLDETC [ISL2] | 4.04 ± 0.19 | 4.03 ± 0.39 |  | 
EDSIPLRGLSQNLFSNSDHQRDGT [SASS6] | 4.94 ± 0.15 | 4.99 ± 0.2 |  | 
RTPPKSPGDPSKDRAAKRLSLESE [TPPP] | 5.3 ± 0.14 | 4.99 ± 0.25 |  | 
MSNHTRERVTVAKLTLENFYSNLI [STK38L] | 2.21 ± 0.16 | 2.31 ± 0.31 |  | 
RPSEIKDYSPYFKTIEDLRNKIIA [KRT16] | 2.28 ± 0.18 | 2.41 ± 0.22 |  | 
MRPPMPPHGQYGGHHQGMPGYLPG [ZNF207] | 3.23 ± 0.3 | 3.29 ± 0.18 |  | 
SGKVSSSSSSLGNKLQTLSPSHKG [ZC2HC1A] | 4.31 ± 0.14 | 4.26 ± 0.091 |  | 
LKLTVVEDVTVGRRQAVAWLVAMH [ZFYVE21] | 3.15 ± 0.56 | 2.91 ± 0.57 |  | 
PDLVKGPWTKEEDQKVIELVKKYG [MYBL2] | 3.86 ± 0.22 | 3.99 ± 0.21 |  | 
RTGSLFKIWLVVPSLLELAWEKLL [KLHDC10] | 2.84 ± 0.27 | 2.78 ± 0.31 |  | 
KECVSILPRKESPSVRSSKDGKLL [TNFSF13B] | 4.53 ± 0.11 | 4.56 ± 0.091 |  | 
DGEEIPVQKNILAAASPYIRTKLN [GAN] | 4.13 ± 0.33 | 4.32 ± 0.28 |  | 
LKIELETYKLKCKALQEENRDLRK [CCDC6] | 4.25 ± 0.29 | 4.63 ± 0.23 |  | 
SQDFVGEKLGSGEPSHSVKVHTVP [ATE1] | 4.78 ± 0.17 | 4.83 ± 0.26 |  | 
AGPAFDSDPEISDVDEDEPGGLVG [PPFIA4] | 5.19 ± 0.56 | 5.77 ± 0.07 |  | 
TWASPAEVVDLTLDEDSRRKYLL [C18orf25] |  |  | 4.49 ± 0.44 | 4.68 ± 0.53
PVLQSRTGLVYDQNMMNHCNLWDS [HDAC6] | 2.75 ± 0.41 | 2.93 ± 0.33 |  | 
LYRTLFSVINNGHNQKVHMHMVDL [PDS5B] | 2.73 ± 0.56 | 2.77 ± 0.77 |  | 
LWAGSKGKEFGYFPRDAVQIEEVF [MIA2] | 2.66 ± 0.51 | 2.77 ± 0.46 |  | 
YTRLGEMNNAVRNLQELLELDSSS [CEP70] | 3.77 ± 0.22 | 4.06 ± 0.17 |  | 
ANPSIRDKEGYNSIHYAAAYGHRQ [ANKRD44] | 3.52 ± 0.22 | 3.6 ± 0.3 |  | 
EATKEVHTQAENAEFMRNFQKGQV [HMOX1] | 5.04 ± 0.17 | 5.21 ± 0.23 |  | 

Sequence | protein stability index [1] | protein stability index [2] | protein stability index [3] | protein stability index [4]
HQRDGTLGALHTSSKPTALPSASS [SASS6] | 4.57 ± 0.25 | 4.55 ± 0.12 |  | 
VQRHLYLQDVIMQVADVPEKPRVP [ZNF511] | 2.8 ± 0.2 | 2.9 ± 0.29 |  | 
TFFGTELAPVRQQELASLLRTYLA [PBXIP1] | 2.22 ± 0.29 | 2.48 ± 0.43 |  | 
AWKHGNIHLSAPCIYSEVMEALDL [PCMTD2] | 2.71 ± 0.26 | 2.73 ± 0.27 |  | 
SFQLFVEGYKDADYWLRRFEAEPL [PI4K2A] | 1.92 ± 0.41 | 2.35 ± 0.25 |  | 
QDNNCHFDAALVSFINFFTSVLAT [SLC6A17] | 2.91 ± 0.3 | 2.75 ± 0.3 |  | 
TLEEIQKHNHSKSTWLILHHKVYD [CYB5A] | 2.37 ± 0.19 | 2.58 ± 0.24 |  | 
ILHLICLLEKVPCTLEQDHFKKQT [FEM1C] | 2.82 ± 0.71 | 2.25 ± 0.45 |  | 
FGEDGIFRHDRLRFRDFVDALEDS [PBXIP1] | 3.29 ± 0.32 | 3.58 ± 0.46 |  | 
GAQIWCGEGVDKLSLPARNQAGYF [ALDH8A1] | 2.47 ± 0.27 | 2.65 ± 0.37 |  | 
FNAGIQQAFQLPKLGALLSRCRKL [ZBED1] | 2.63 ± 0.31 | 2.63 ± 0.29 |  | 
KAMLQLHERGLKLHQTIYNQACKL [INTS4] | 2.23 ± 0.44 | 2.21 ± 0.26 |  | 
ELSTLRNLFKQLPEPLLASSGHC [CEBPB] |  |  | 2.12 ± 0.44 | 2.38 ± 0.14
SPVTENSTSLSFLDSCNSLTPKST [MYBL2] | 4.91 ± 0.15 | 4.77 ± 0.14 |  | 
APLQSVFQGQKTELNNCISMLVAG [TRIM63] | 2.85 ± 0.19 | 2.88 ± 0.22 |  | 
RTADEATNTGPAGSSASTSPAPLD [DYRK1B] | 5.5 ± 0.28 | 5.34 ± 0.21 |  | 
CKSGAAAKGGFSGCSAVLSGGSSS [KRT71] | 3.26 ± 0.46 | 3.44 ± 0.066 |  | 
LPSVTDIRRPRLYLLQWLKSDKAL [PLK2] | 2.33 ± 0.24 | 2.36 ± 0.49 |  | 
HPRALPPDARPHRRPHELLPVGGR [HAGHL] | 4.48 ± 0.12 | 4.33 ± 0.23 |  | 
ASFHHKLHHKRLAKECMLQEENKS [CBY2] | 4.1 ± 0.26 | 4.27 ± 0.2 |  | 
ATRVAPERLFGSAANVVSAKRNRL [ZBED1] | 3.83 ± 0.28 | 3.82 ± 0.14 |  | 
TYAMGHLIQRKKVHVFGDELSLVT [TNFSF13B] | 2.32 ± 0.3 | 2.42 ± 0.21 |  | 
